Results published in patent US20150104459A1 (published 2015).

Experiments:
[1] = target: hemagglutinin (HA) of live influenza A/Wisconsin/67/05 (H3N2) virus (influenza A virus A/Wisconsin/67/2005 …); experiment: cell-based or functional assay
[2] = target: hemagglutinin (HA) of live influenza A/Solomon Islands/3/06 (H1N1) virus (influenza A virus A/Solomon …); experiment: cell-based or functional assay
[3] = target: hemagglutinin (HA) of live influenza A/California/4/09 (H1N1) virus (influenza A virus A/California/04/2009 …); experiment: cell-based or functional assay
[4] = target: recombinant soluble homotrimeric HA, A/Hong Kong/156/97 (H5N1) (influenza A virus A/Hong Kong/156/97 …); experiment: microarray, trimeric HA, transfection supernatant
[5] = target: recombinant soluble homotrimeric HA, A/northern shoveler/California/HKWF115/2007 (H6N1) (influenza A virus A/northern …); experiment: microarray, trimeric HA, transfection supernatant
[6] = target: recombinant soluble homotrimeric HA, A/duck/Yangzhou/02/2005 (H8N4) (influenza A virus …); experiment: microarray, trimeric HA, transfection supernatant
[7] = target: recombinant soluble homotrimeric HA, A/Anhui/1/05 (H5N1) (influenza A virus A/Anhui/1/2005 (H5N1)); experiment: microarray, trimeric HA, transfection supernatant
[8] = target: recombinant soluble homotrimeric HA, A/Netherlands/219/03 (H7N7) (influenza A virus A/Netherlands/219/03 …); experiment: microarray, trimeric HA, transfection supernatant
[9] = target: recombinant soluble homotrimeric HA, A/chicken/Vietnam/NCVD-016/08 (H5N1) (influenza A virus …); experiment: microarray, trimeric HA, transfection supernatant
[10] = target: recombinant soluble homotrimeric HA of A/duck/Yangzhou/02/2005 (H8N4) (Influenza A virus …); experiment: HA microarray, BCC supernatant
[11] = target: recombinant soluble homotrimeric HA of A/northern shoveler/California/HKWF115/2007 (H6N1) (Influenza A virus A/northern …); experiment: HA microarray, BCC supernatant

B1: TCN-553 (5261_C18) (antibody, V domains shown)
VH: QVQVVQSGTEVKKPGSSVKVSCQTSGGRFMSYAITWVRQAPGQGLEWMGGIVPVFGTANYAQKFQGRVTITTDDSTRTAYMELSSLRSEDTAVYYCGFRYGSGYGFDSWGQGTLVTVSS
VL: EIVLTQSPGTLSLSPGERATLSCRASQSVSSSYLAWYQKKPGQAPRLLIYGASTRATGIPDRFTGSGSGTDFTLSISRLEPEDFAVYYCQHFGTSVFTFGGGTKVEIK
- % Neutralization [1]: 5%
- % Neutralization [2]: 44%

B2: TCN-546 (5089_L08) (antibody, V domains shown)
VH: QVQLQQWGAGLLKPSETLSLTCGVYGGSLSDYYWSWIRQPPGKGLEWIGEINHSGGTNYNPSLKRRVTISVDTSKKQFSLKMNSVTAADTAVYYCARGTDPDTEVYCRAGNCAAFDFWGQGTLVTVSS
VL: EIVLTQSPGTLSLSPGERATLSCRASHFVIGRAVAWYQQKPGQAPRLLIYGASSRATGIPDRFSGSGSGTDFTLTISRLETEDFAVFYCQHYGSSPRYAFGQGTKLEIK
- % Neutralization [3]: 0%
- % Neutralization [1]: 100%
- % Neutralization [2]: 98%

B3: TCN-542 (5079_A16) (antibody, V domains shown)
VH: QVQLQESGPGLVKPSQTLSLTCTVSGGSISSGNYYWNWVRQHPGKGLEWIGYIYYRGSTFYNPSLKSRVTISIDTSKNQFSLRLSSVTAADTAVYYCAKDTRSSLDNYQYGMDVWGQGTTVTVSS
VL: QTVVTQEPSLTVSPGGTVTLTCASSTGAVTSSYFPNWFQQKPGQAPRPLIYSTTIRHSWTPARFSGSLLGGKAALTLSGVQPEDEADYYCLLYSGGDPVAFGGGTKLTVL
- % Neutralization [3]: 15%
- % Neutralization [1]: 8%
- % Neutralization [2]: 99%

B4: TCN-556 (5089_K12) (antibody, V domains shown)
VH: QVQLVQSGAEVKKPGASVKVSCKASGYTFIGYDMHWVRQAPGQGLEWMGWINAKRGGTNYAQKFQGRVTMTRDTSISTAYMELNSLRSDDTAVYYCARGVGSRTTIFGVLNPEFDYWGQGTLVTVSS
VL: QSALTQPPSASGSPGQSVTISCTGSSSDVGGYDYVSWYQQHPGKAPKLLIYEVTKRPSGVPDRFSGSKSGNTASLTVSGLQAEDEADYYCSSYAGNYNHVFGPGTKVTVL
- Trimeric HA Binding RLU [4]: 24600 RLU
- Trimeric HA Binding RLU [5]: 34800 RLU
- Trimeric HA Binding RLU [6]: 22400 RLU
- Trimeric HA Binding RLU [7]: 13800 RLU
- Trimeric HA Binding RLU [8]: 43600 RLU
- Trimeric HA Binding RLU [9]: 22700 RLU

B5: TCN-556 (5089_K12) (antibody, V domains shown)
VH: QVQLVQSGAEVKKPGASVKVSCKASGYTFIGYDMHWVRQAPGQGLEWMGWINAKRGGTNYAQKFQGRVTMTRDTSISTAYMELNSLRSDDTAVYYCARGVGSRTTIFGVLNPEFDYWGQGTLVTVSS
VL: QSALTQPPSASGSPGQSVTISCTGSSSDVGGYDYVSWYQQHPGKAPKLLIYEVTKRPSGVPDRFSGSKSGNTASLTVSGLQAEDEADYYCSSYAGNYNHVFGPGTKVTVL
- Trimeric HA Binding RLU [10]: 16900 RLU
- Trimeric HA Binding RLU [11]: 11900 RLU

B6: TCN-560 (5084_P10) (antibody, V domains shown)
VH: EVQLVESGGGLVQPGGSLRLSCAASGFIFRNYWMSWVRQAPGKGLEWVANIKQDGREKYYVDSLRGRVNISRDNAENSLYLHMNSLRVEDTAVYFCARARMVVVTGDGFDVWGHGTMVTVSS
VL: DIQMTQSPSSLSASVGDRVTITCRASQNIKRYFNWYQQKPGKAPKLLIYAASNLENGVPSRFSGSGSGTDFTLTISSLQPEDFATYYCQQSFSKSWTFGQGTNVDIK
- Trimeric HA Binding RLU [4]: 29300 RLU
- Trimeric HA Binding RLU [5]: 35900 RLU
- Trimeric HA Binding RLU [6]: 27900 RLU
- Trimeric HA Binding RLU [7]: 18600 RLU
- Trimeric HA Binding RLU [8]: 32100 RLU
- Trimeric HA Binding RLU [9]: 18200 RLU

B7: TCN-560 (5084_P10) (antibody, V domains shown)
VH: EVQLVESGGGLVQPGGSLRLSCAASGFIFRNYWMSWVRQAPGKGLEWVANIKQDGREKYYVDSLRGRVNISRDNAENSLYLHMNSLRVEDTAVYFCARARMVVVTGDGFDVWGHGTMVTVSS
VL: DIQMTQSPSSLSASVGDRVTITCRASQNIKRYFNWYQQKPGKAPKLLIYAASNLENGVPSRFSGSGSGTDFTLTISSLQPEDFATYYCQQSFSKSWTFGQGTNVDIK
- Trimeric HA Binding RLU [10]: 44700 RLU
- Trimeric HA Binding RLU [11]: 42300 RLU

B8: TCN-552 (5249_I23) (antibody, V domains shown)
VH: QVQVVQSGAEVKKPGSSVRVSCQASGGTFMNYAIIWVRRAPGQGLEWMGGIIPVFPTPNYAQMFQGRVTISTDESRSTSFLELTNLRYEDTAVYYCARRIYHGGNSGFDFWGQGTLVTVSS
VL: EIVLTQSPATLSLSPGERATLSCRASQSVGNYLAWYQQKPGQAPRLLIYDSSNRAPGIPARFSGSGSGTDFTLTISSLAPEDFAVYYCQQRSKWPPMYSFGHGTKLEIK
- % Neutralization [1]: 14%
- % Neutralization [2]: 0%

B9: TCN-558 (5248_H10b) (antibody, V domains shown)
VH: QVQLVQSGSEVKKPGTSVKVSCTASGSVFTNYGISWVRQAPGQGLEWMGGIIPLFGAAKYAQKFQGRVTITADESTKTVYMELSRLTSKDTAIYFCAKAPRVYEYYFDQWGQGTPVTVSS
VL: EIVMTQFPATLSVSPGERVTLSCRASQSVSNNLAWYQQKPGQPPRLLIYDASTRATGVPAKFSGTGSGTEFTLSISSLQSEDFAVYYCQQYHNWPPSYSFGLGTKLEIK
- % Neutralization [1]: 7%
- % Neutralization [2]: 84%

B10: TCN-555 (5246_L16) (antibody, V domains shown)
VH: QVQLVQSGAEVKRPGSSVKVSCTASGGIFRKNAISWVRQAPGQGLEWMGGIIAVFNTANYAQKFQNRVKITADESGNTAYMELSSLTSDDTAVYYCASHPKYFYGSGSYPDFWGQGTLVTVSS
VL: QSALTQPRSVSGSPGQSITISCTGGSSDIGASNSVSWYQQHPGKAPKLVIFDVTERPSGVPHRFSGSKSGNTASLTVSGLQPDDEADYFCCAYGGKYLVVFGGGTKVTVL
- % Neutralization [1]: 5%
- % Neutralization [2]: 49%

B11: TCN-551 (5243_D01) (antibody, V domains shown)
VH: EVQLVQSGSEVKKPGESLKISCKGSGYSFSNYWIGWVRHMPGKGLEWMGIIYPGDSDTRYSPSFQGQVTMSADKSSSTVYLQWSSLKASDTAIYYCARRGGHSFGYGSGGDTHSEFDSWGQGTLVTVSS
VL: QSVLTQSPSVSAAPGQKVTISCSGSDSNIGDYFVCWYQHLPGKPPQLLIYENNKRPSGIPDRFSGSKSGTSATLGITGIQTGDEADYYCATWDGSLSAWVFGGGTKLTVL
- % Neutralization [1]: 6%
- % Neutralization [2]: 99%
